US20070087000A1 (Pfizer, published 2007)

How the values were obtained:
[1] = molecular target: T1, Human GDF-8 (mature, recombinant dimer), biotinylated in the ELISAs (human, UniProt O14793 267-375, biotinylated in the direct and competition ELISAs (sites not given)); test: competition ELISA: soluble ActRIIB-Fc as competitor of biotinylated GDF-8 binding to immobilized ActRIIB-Fc
T1 construct: It was not biotinylated in the reporter assay; also called myostatin; growth and differentiation factor-8

[2] = molecular target: T1, Human GDF-8 (mature, recombinant …); test: competition ELISA: RK35 inhibits binding of biotinylated GDF-8 to immobilized ActRIIB-Fc; competition ELISA, biotinylated GDF-8 to immobilized ActRIIB-Fc

B1: Recombinant ActRIIB-Fc chimera (human ActRIIB fused to the human IgG constant region, Fc) (Fc fusion, UniProt Q13705 19-137, looked up)
chain: SGRGEAETRECIYYNANWELERTNQSGLERCEGEQDKRLHCYASWRNSSGTIELVKKGCWLDDFNCYDRQECVATEENPQVYFCCCEGNFCNERFTHLPEAGGPEVTYEPPPTAPTLLT
notes: extracellular domain; The same protein was used immobilised and as the soluble positive control; also called soluble ActRIIB; soluble ActRIIB-Fc receptor; not shown: human IgG1 Fc region
IC50 (read off the curve) [1]: ~0.3 nM

B2: RK35 anti-GDF-8 mouse monoclonal antibody (antibody, V domains shown)
VH: EVQLVESGGGLVKPGGSLKLSCAASGFTFSSYAMSWVRQTPEKRLEWVATISSGGSYTSYPDSVKGRFTISRDNAKNTLYLQMSSLRSEDTAMYYCARQDYAMNYWGQGTSVTVSS
VL: DIEMTQSHKFMSTSVGDRVSITCKASQDVSTAVAWYQQKPGQSPKLLLYSASYRYTGVPDRFTGSGSGTDFTFTISSVQAEDLAVYYCQQHYSTPWTFGGGTKLEIK
notes: Murine monoclonal antibody from a hybridoma (myostatin knockout BALB/c mice immunised with recombinant GDF-8 dimer); also called RK35 mAb; murine RK35
IC50 [2]: ~2.5 nM
